Measurements from publication PMC3257258, “Characterization of a Novel Association between Two Trypanosome-Specific Proteins and 5S rRNA”.

T1: P34 (Trypanosoma brucei, UniProt O15758 1-262)
T1 sequence: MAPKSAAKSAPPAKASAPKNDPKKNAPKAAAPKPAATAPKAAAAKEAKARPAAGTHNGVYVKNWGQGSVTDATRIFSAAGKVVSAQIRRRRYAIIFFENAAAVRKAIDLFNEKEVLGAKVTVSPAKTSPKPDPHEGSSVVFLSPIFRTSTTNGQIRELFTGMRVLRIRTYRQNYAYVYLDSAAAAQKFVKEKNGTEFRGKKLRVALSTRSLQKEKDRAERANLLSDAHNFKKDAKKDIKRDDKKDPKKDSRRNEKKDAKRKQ

T2: P37 (Trypanosoma brucei, UniProt O15759 1-279)
T2 sequence: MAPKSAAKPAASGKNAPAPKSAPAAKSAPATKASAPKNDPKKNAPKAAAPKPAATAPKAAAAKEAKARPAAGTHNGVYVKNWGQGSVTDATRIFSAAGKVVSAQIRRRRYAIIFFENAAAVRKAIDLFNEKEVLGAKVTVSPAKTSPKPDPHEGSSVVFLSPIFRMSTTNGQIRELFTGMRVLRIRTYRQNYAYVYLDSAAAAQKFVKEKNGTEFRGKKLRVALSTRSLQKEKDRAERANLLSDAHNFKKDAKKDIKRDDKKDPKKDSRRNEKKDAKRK


Tests used:
P34 [1] = molecular target: T1, P34; experiment: competition; competes 5S rRNA at 100-1000 ng; Filter binding: 10 mM Tris pH 7.4, 1 mM EDTA, 100 mM NaCl, 0.1% NP-40, 100 ug/mL BSA, RT 20 min; EMSA/competition/RNase H protection: 10 mM Tris-HCl pH 7.4, 150 mM KCl, 0.1 mM DTT, 0.1 mM EDTA, 0.1% NP-40, RT 20 min; conditions: protein: recombinant; tags: His (pQE-1); hairpin
P37 [2] = molecular target: T2, P37; experiment: competition; competes 5S rRNA at 100-1000 ng, somewhat better than for P34; Filter binding: 10 mM Tris pH 7.4, 1 mM EDTA, 100 mM NaCl, 0.1% NP-40, 100 ug/mL BSA, RT 20 min; EMSA/competition/RNase H protection: 10 mM Tris-HCl pH 7.4, 150 mM KCl, 0.1 mM DTT, 0.1 mM EDTA, 0.1% NP-40, RT 20 min; conditions: protein: recombinant; tags: His (pQE-1); hairpin
P37 [3] = molecular target: T2, P37; experiment: filter binding; similar to wild type, data not shown; Filter binding: 10 mM Tris pH 7.4, 1 mM EDTA, 100 mM NaCl, 0.1% NP-40, 100 ug/mL BSA, RT 20 min; EMSA/competition/RNase H protection: 10 mM Tris-HCl pH 7.4, 150 mM KCl, 0.1 mM DTT, 0.1 mM EDTA, 0.1% NP-40, RT 20 min; conditions: protein: recombinant; tags: His (pQE-1); label: 32P-UTP (body)
P34 [4] = molecular target: T1, P34; experiment: filter binding; no significant difference from wild type (one text sentence says P37; legend and assay say P34); Filter binding: 10 mM Tris pH 7.4, 1 mM EDTA, 100 mM NaCl, 0.1% NP-40, 100 ug/mL BSA, RT 20 min; EMSA/competition/RNase H protection: 10 mM Tris-HCl pH 7.4, 150 mM KCl, 0.1 mM DTT, 0.1 mM EDTA, 0.1% NP-40, RT 20 min; conditions: protein: recombinant; tags: His (pQE-1); label: 32P-UTP (body)

Binder	binding result (P34 [1])	binding result (P37 [2])	binding result (P37 [3])	binding result (P34 [4])
GCGGGGUGCCAUACUUACAGGCCUCGC (structured_RNA) [LoopA/StemV]	binds	binds		
5S rRNA deltaU (U43A) (structured_RNA) RNA: GGGUACGACCAUACUUGGCCGAAUGCACCAUAUCCCGUCCGAAUUGUGAAGUUAAGCGGCCACAGGCCUCGUUAGUACGGCGAUCAGUGAUGGCGCUGGAACCCGGGGUGUUGUACUCU			binds	binds
